Source: US20180222961A1

Target: HLA-A*02:01 (human)
Assay: UV-exchange b2m ELISA; exchange-yield grade
Conditions: remark: other sources report otherwise

SVFAHPRKL […] was tested, and the peptide exchange yield was 50 to 75%.
